Test results from patent US20220009993A1.

Biological target: CD19 on CD19+ cells (Nalm6 and Namalwa) (human) (UniProt P15391)
Assay: cell-based or functional assay

UniProt P15391, sequence (P15391 20-556): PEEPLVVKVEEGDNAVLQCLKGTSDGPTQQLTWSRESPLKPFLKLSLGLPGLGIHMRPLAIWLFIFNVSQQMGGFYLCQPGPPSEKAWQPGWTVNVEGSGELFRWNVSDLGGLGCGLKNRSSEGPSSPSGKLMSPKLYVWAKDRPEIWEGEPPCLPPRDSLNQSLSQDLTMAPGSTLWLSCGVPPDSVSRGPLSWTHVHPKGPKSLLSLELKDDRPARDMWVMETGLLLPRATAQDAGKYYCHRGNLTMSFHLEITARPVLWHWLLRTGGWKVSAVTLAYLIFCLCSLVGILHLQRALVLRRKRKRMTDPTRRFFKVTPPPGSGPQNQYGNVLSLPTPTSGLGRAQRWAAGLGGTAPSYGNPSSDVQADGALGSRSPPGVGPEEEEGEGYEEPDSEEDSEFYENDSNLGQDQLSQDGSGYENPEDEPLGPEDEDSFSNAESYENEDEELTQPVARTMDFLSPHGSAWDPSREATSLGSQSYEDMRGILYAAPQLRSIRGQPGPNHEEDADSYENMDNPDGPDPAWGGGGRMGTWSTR

“ARI, a second-generation anti-CD19 CAR, expressed on primary T cells from the AWARI lentiviral vector (AW promoter, SEQ ID NO 1)” was tested, and the specific lysis of CD19+ cells (Nalm6, Namalwa) after 48 h co-culture, relative to non-transduced T cells was 70 to 80%.
